Source: the supplement of paper PMC10567573

B1: C10orf62 (parent)
chain: MLWVQRKRRRKETSECPSDKDKSP
B2: PPFIA4 (parent)
chain: VMTLPSDLRKHRRKLLSPVSREEN

Variants of: B1
Assay: protein stability index of a GFP-peptide fusion (GPS, HEK-293T) (PSI 1-6); higher = more stable
Details: c terminus: a fixed tail appended
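Note: lentivirally expressed fusions sorted by FACS into six bins by GFP to DsRed ratio, PSI derived from sequencing read proportions per bin multiplied by bin number.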

Protein stability index: each site, then its substitutions
E15: R 2.54, N 3.52, Q 3.56, I 1.92, C 3, T 2.95, K 2.74, L 2.84, V 3.29, M 2.24, Y 2.76, H 2.92, A 3.71, P 2.99, D 3.26, S 2.96, W 2.15, F 3
P17: A 4.1, E 2.41, N 3.23, S 2.92, L 2.98, T 3.08, R 2.52, W 2.86, H 2.81, F 2.51, Y 2.27, M 3.44, I 2.96, Q 3.36, C 2.74, D 2.6
D19: S 2.37, F 2.57, E 2.46, H 2.77, Y 2.99, M 3.44, V 2.63, A 2.77, C 2.76, P 2.61, W 1.65, L 1.98, I 2.84, Q 2.65, N 2.92
K11: E 3.06, T 2.73, Y 2.31, G 2.9, W 2.45, F 2.73, M 2.71, Q 3.44, H 2.72, C 2.46, A 4.09, D 3.46, L 3.55, N 3.11, I 2.9, R 3.39, P 3.34
K20: S 2.73, I 3.7, Q 2.46, G 3.29, H 2.97, N 4.29, F 2.12, P 3.19, D 4.06, Y 3.92, C 3.52, L 3.01, M 3.38, T 3.35, R 2.81, A 2.74, V 3.27
K22: M 3.06, E 2.83, I 2.61, A 4.4, L 3.2, C 2.32, S 3.18, T 3.48, Y 3.12, N 3.47, P 3.58, D 2.48, G 2.97, F 2.66, V 3.63
S18: Q 3.42, T 2.75, V 2.9, H 2.85, M 2.94, W 2.63, N 2.83, A 3.23, G 3.58, K 2.77, E 2.88, R 3.21, Y 2.43, C 2.77, D 3.07, I 2.41
R8: E 5.08, L 2.51, H 3.89, M 3.74, C 3.34, I 3.36, F 3.05, G 4.16, K 3.15, A 3.9, S 3.91, Q 4.1, T 2.95, D 3.52, Y 3.19, N 3.78
D21: K 4.07, Y 2.32, Q 2.87, G 3.36, E 3.44, L 2.29, M 2.5, R 1.92, P 2.62, N 3.44, I 2.32, F 2.4, A 2.64, H 2.28
S14: I 2.74, N 3.14, G 3.1, E 3.2, M 3.31, T 2.55, D 3.12, W 2.94, R 2.55, A 3.82, Y 2.44, V 3.14, H 2.71, F 3.12
R10: K 3.41, N 3.78, P 4.27, F 2.33, Q 3.12, W 2.89, L 2.78, H 3.45, D 4.11, M 3.13, T 3.79, Y 2.78, E 3.86, A 3.85, C 2.51, S 3.21
R9: Y 3.75, G 3.2, V 3.18, T 3.49, A 3.71, I 3.4, M 3.63, K 2.73, D 3.62, N 3.18, L 3.08, Q 3.2, F 3.64, E 3.71, P 2.26, C 2.81, H 3.32
E12: C 2.7, M 2.67, S 3.45, L 3.02, Q 3.37, T 2.92, H 3.16, G 2.49, W 2.5, D 2.39, Y 2.68, R 3.7, A 3.13, K 3.44, P 3.67, I 2.39, F 2.5, N 2.67, V 2.93
S23: I 2.4, W 1.92, N 3.29, Q 3.42, E 2.48, H 2.77, P 2.88, G 3.25, V 3.58, C 3.15, L 3.38, D 3.49, A 3.2, T 3.05, R 2.88, K 2.27, M 3.39, F 2.5, Y 2.69
C16: Y 3.1, F 2.29, P 2.16, G 2.43, N 3.16, E 3.25, M 3.84, V 2.81, R 3.35, W 2.16, L 2.53, S 4.01, K 3.41, H 3.11, Q 3.75, I 2.95
K7: F 2.73, R 3.29, L 1.73, T 3.15, D 3.97, C 2.31, I 1.95, P 3.97, H 3.69, Y 1.57, V 2.69, Q 3.74, A 3.08, S 3.85, W 2.49, N 3.9, M 3.06, G 3.23
T13: R 3.48, L 3.4, I 2.52, P 3.04, W 2.75, E 2.99, C 2.42, K 3.55, D 2.3, Y 2.07, Q 2.58, V 4.26, H 3.39, G 2.15, S 2.25
P24: Y 2.57, T 2.98, L 2.37, S 3.11, K 2.16, H 3.31, F 2.46, M 2.46, C 3.2, D 3.28, R 3.31, N 2.8, A 3.72, W 3.58, G 3.59, I 2.35, Q 3.54, V 2.95

Variants of: B2
Assay: as above
Details: c terminus: a fixed tail appended

Protein stability index: each site, then its substitutions
V1: M 3.89, L 3.27, E 4.2, H 4.25, K 3.81, T 4.25, W 2.66, F 2.83, A 3.93, S 4.27, G 3.31, I 3.55, D 4.35, C 3.81, N 3.62, Y 3.21, R 4.59, Q 4.35, P 4.27
M2: V 3.46, S 3.69, N 3.84, L 3.48, H 4.02, C 3.65, R 4.04, Y 3.15, E 4.54, A 4.31, D 4.71, T 4.46, W 3.72, K 3.82, G 4.17, Q 3.06, F 3.19, P 3.93, I 3.12
